The source of these data is patent US20240294595A1, “GLYCOPEPTIDES AND USES THEREOF” (Arizona Board of Regents on Behalf of the University of …, priority 2013, published 2024).

Where no end group is shown, it is not given here. [ ]: non-standard residue; d: D form. The star is where a group is joined. βGlc = OC[C@H]1O[C@@H](*)[C@H](O)[C@@H](O)[C@@H]1O; Nle = CCCC[C@H](N)C(=O)O

This experiment addresses human PAC1 receptor (PAC1-CHO clonal cell line) (human), P41586. The experiment in a line: cell-based or functional assay.

Chain of human PAC1 receptor (PAC1-CHO clonal cell line) (human), P41586 (P41586 21-468): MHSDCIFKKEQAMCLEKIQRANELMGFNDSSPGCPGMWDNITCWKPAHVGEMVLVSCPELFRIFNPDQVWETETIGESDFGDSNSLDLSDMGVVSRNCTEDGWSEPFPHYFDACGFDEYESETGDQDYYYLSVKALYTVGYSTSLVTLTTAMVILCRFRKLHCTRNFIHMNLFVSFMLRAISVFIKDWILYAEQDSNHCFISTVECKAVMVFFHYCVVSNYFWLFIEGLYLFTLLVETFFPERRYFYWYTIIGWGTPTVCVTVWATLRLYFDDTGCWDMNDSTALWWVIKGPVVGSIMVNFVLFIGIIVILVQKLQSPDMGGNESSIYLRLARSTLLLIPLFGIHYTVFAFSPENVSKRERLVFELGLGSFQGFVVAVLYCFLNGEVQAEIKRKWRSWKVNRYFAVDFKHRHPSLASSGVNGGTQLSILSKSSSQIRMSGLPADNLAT

B1: Hs…Ñ…-Ser(Glc) (peptide)
peptide: HSDGIFTDSYSRYRKQXAVKKYLAAVS
modifications: here or on the partner: D-Serine at 2 (s); L-Nor-Leucine at 17 (Ñ, written X in letters); Ser 27 = L-Ser(β-D-Glc)
B1: the EC50 (agonist) worked out at 54.5 nM and the EMax (agonist) was found to be 86%.

B2: Hs…Ñ…-Ser(Glc) (peptide)
peptide: HSDGIFTDSYSRYRKQXAVKKYLAAVLS
modifications: here or on the partner: D-Serine at 2 (s); L-Nor-Leucine at 17 (Ñ, written X in letters); Ser 28 = L-Ser(β-D-Glc)
As to B2, the EC50 (agonist) worked out at 25.5 nM and the EMax (agonist) came out at 85%.

B3: …-Ser(Mel) (peptide)
peptide: HSDGIFTDSYSRYRKQLAVKKYLAAVLS(melibiose)-NH2
In the case of B3, the EC50 (agonist) stood at 0.57 nM and the EMax (agonist) was 99%.

B4: PACAP6-38 (peptide)
peptide: FTDSYSRYRKQMAVKKYLAAVLGKRYKQRVKNK
modifications: ends and bridges not checked
Consider B4, for which the antagonist potency, variable concentration mode versus 5 nM PACAP1-27 (calcium flux, FLIPR) is > 333 nM and the pA2 (Gaddum/Schild EC50 shift model) was 201 nM.

B5: PACAP1-27-S-G (peptide)
peptide: HSDGIFTDSYSRYRKQMAVKKYLAAVLS
modifications: here or on the partner: added C-terminal serine carries glucose (serine glucoside)
In the case of B5, the normalized efficacy (calcium flux, FLIPR; PACAP1-27 = 100%) was found to be 102% and the potency of PAC1 activation (calcium flux, FLIPR, agonist mode, PAC1-CHO cells) turned out to be 5.68 nM.

B6: Hs…Ñ…-Ser(Glc)-L (peptide)
peptide: H[dS]DGIFTDSYSRYRKQ[Nle]AVKKYLAALS(βGlc)L-NH2
modifications: ends and bridges not checked
B6: the EC50 (agonist) is > 250 nM and the EMax (agonist) is -79%.

B7: Hs…Ñ…-Ser(Glc) (peptide)
peptide: HSDGIFADSYSRYRKQXAVKKYLAAVLS
modifications: here or on the partner: D-Serine at 2 (s); L-Nor-Leucine at 17 (Ñ, written X in letters); Ser 28 = L-Ser(β-D-Glc)
B7: the EC50 (agonist) was > 250 nM and the EMax (agonist) was -71%.

B8: PACAP1-27 (peptide)
peptide: HSDGIFTDSYSRYRKQMAVKKYLAAVL
modifications: ends and bridges not checked
On to B8, for which the EMax (agonist) was determined as 100%.
